Measurements from publication PMC10418163 (bioRxiv, 2024).

Columns and labels:
[1] = target: Pseudomonas aeruginosa PhuR refolded from inclusion bodies (Pseudomonas aeruginosa PAO1, UniProt Q9HV88); test: SEC
[2] = target: Pseudomonas aeruginosa PhuR, natively expressed (purified from E. coli outer membranes, heme-bound) (Pseudomonas aeruginosa PAO1, UniProt Q9HV88); test: ELISA

B1: synthetic antibody sAB11 (Fab, V domains shown)
VH: EVQLVESGGGLVQPGGSLRLSCAASGFNFYYYSIHWVRQAPGKGLEWVASISPYYGSTYYADSVKGRFTISADTSKNTAYLQMNSLRAEDTAVYYCARSMNWYYSSPYGMSQGMDYWGQGTLVTVSS
VL: DIQMTQSPSSLSASVGDRVTITCRASQSVSSAVAWYQQKPGKAPKLLIYSASSLYSGVPSRFSGSRSGTDFTLTISSLQPEDFATYYCQQGSSSPLTFGQGTKVEIK
- binding result [1]: binds
- EC50 [2]: ~9 nM
